Measurements as given in a protein production outcome set (Wang et al. 2014).

Test: label from the status in PepcDB records
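Note: failed if final PepcDB status was selected cloned or expressed and not failed if soluble or beyond.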

| Sequence | protein production |
| --- | --- |
| MGEMAPTLVLKNATYLNSVRGKWLDANIWIYQDRIVYVGQDMPAKLDDETEVVDCGQQVIVPGYIEHHAHPFQLYNPHSFANYAAAMGTTTLINDNLEHHHHHH | not failed |
| MQAFFANPAVSWTLLTTGGILLVVIWVLLSLAFLLLADRKIWAGVQMRKGPNVVGPFGLLQSFADFFKFVLKEIVIPAGADKVVFILAPLISLILAFVGWAVVPFAPGWVVSNLNVGILYLLAMSSLGVYGIIMGGWASNSKYPFLGALRSAAQMVSYEVSIGLIIITVILLAGSMNLSTIVEKQSGWIWNWNVFGGGLNNLVLLPVMVVAMGMFYISALAETNRPPFDLPEAESELVAGYQVEYSSTPYLLFMVAEYSNIVLMCAMISVLFFGGWNPGFPTDFLSSWHPFAANLFLALVFYAKICFWFFMFAMAKAIVPRYRYDQLMRLGWKVFLPTSLVLVAAVAAWRVFGPAA | failed |
| MIDRNIVNLRLFRIYSKRYLKFDFVAAIVVFLVAIPLCLGIALASGAPLFSGILSGIIGGIVVGIFSGSQVSVSGPAAGMAAVVLAAISQLGDFNTFLLALTIAGLLQMIIGALRAGFVADYVPSNVVQGLLCSIGILLIIKQLPLAFTLSSDFDELKTHLLETTEGFTVSPLLALSQHINEGALIITTLSLAILIYFDITKNKILKEIPAPILVVLAGILLNELFIWTNSSLAQNSPQLVNIPDTNGFFQFFSHLEYPDWSAWTNPKVYLYALVICIVASLETLLNLKASERLDKKRRHSPTNQELVAQGLGNITSGLVGGIPVTSVIVRTSINIHAGSKTKFSAVLHGFFILFAVMLIPGALNKIPLSSLAAILIYTGYKLNKPAIYINIFSQGSDRFIPFIVTVISIIAFNLLAGILIGLAISLFYILKSNSQARIDIIKEIYPNGSTYRLMLPQQMTFLNKAALVAELDTLPRRSQLIIDARHSQYIDKEILDLFNELKEELAGSKQISVNFTGFQEHYKIHNYIDFITVTTYDVQTNLTPAQVLNILLEGNQRFLSDNRIHRSNQIDIKYTAKTQHPIAVVLACIDSRVPVETIFDMSFGDLFCVRIAGNVINDDILASIEYACNVVGAKLIMVLGHTRCGAIQSACDGIEKGHITQLLSKIKPAVNAEKETTTERNGKNQTFVNHVTELNVANTLQNIYKKSDILRTMIDSNEIGMVGAIYDVSSGKVSCKTYTEELSTLDGDENKLLAQKFETILLEAKAS | failed |
| MAICKVFRNYCKENDIQLHQANFSLSYDTNIPRQTGLSGSSAIVSAALNCLLDFYNVRHLIKVQVRPNIVLSAEKELGIVAGLQDRVAQVYGGLVHMDFSKEHMDKLGHGIYTPMDISLLPPLHLIYAENPSDSGKVHSMVRQRWLDGDEFIISSMKEVGSLAEEGRTALLNKDHSKLVELMNLNFDIRRRMFGDECLGAMNIEMVEVARRVGAASKFTGSGGAVVVFCPEGPSQVKLLEEECRKAGFTLQPVKIAPSCLNDSDIQTL | failed |
| MTVAIPDLRVCANLTGKTLLICVGAAKCATSWLHDYLGSRPEVTVSPLKELHFFDSKFPEHALGDADGLALARLSFQLGQAGDAVANLRHRAIFQASLDRAQMIYDDNAYFGHFARLCGPQTRCFCDLTPSYSAIGAEGFAYMKRFCASQDIEVKILFLMRDPVRRFWSQLRHLQQMNPVNDVASKWRHALTAPALLARADYRGIVLALEQVFPSANLLCLFYESLFEGDDAIRRLCRFIGIPFAPAATGQRHNETTVRLPLSDDARDAFRHLLAPQYDFCRERFGRSIPGSWLA | failed |
| MAANMYRVGDYVYFENSSSNPYLIRRIEELNKTANGNVEAKVVCFYRRRDISSTLIALADKHATLSVCYKAGPGADNGEEGEIEEEMENPEMVDLPEKLKHQLRHRELFLSRQLESLPATHIRGKCSVTLLNETESLKSYLEREDFFFYSLVYDPQQKTLLADKGEIRVGNRYQADITDLLKEGEEDGRDQSRLETQVWEAHNPLTDKQIDQFLVVARSVGTFARALDCSSSVRQPSLHMSAAAASRDITLFHAMDTLHKNIYDISKAISALVPQGGPVLCRDEMEEWSASEANLFEEALEKYGKDFTDIQQDFLPWKSLTSIIEYYYMWKTTDRYVQQKRLKAAEAESKLKQVYIPNYNKPNPNQISVNNVKAGVVNGTGAPGQSPGAGRACESCYTTQSYQWYSWGPPNMQCRLCASCWTYWKKYGGLKMPTRLDGERPGPNRSNMSPHGLPARSSGSPKFAMKTRQAFYLHTTKLTRIARRLCREILRPWHAARHPYLPINSAAIKAECTARLPEASQSPLVLKQAVRKPLEAVLRYLETHPRPPKPDPVKSVSSVLSSLTPAKVAPVINNGSPTILGKRSYEQHNGVDGNMKKRLLMPSRGLANHGQARHMGPSRNLLLNGKSYPTKVRLIRGGSLPPVKRRRMNWIDAPDDVFYMATEETRKIRKLLSSSETKRAARRPYKPIALRQSQALPPRPPPPAPVNDEPIVIED | failed |
| MKLRYLNILKEKLGREPTFVELQAFSVMWSEHCGYSHTKKYIRRLPKTGFEGNAGVVNLDDYYSVAFKIESHNHPSAIEPYNGAATGVGGIIRDVLAMGARPTAIFDSLHMSRIIDGIIEGIADYGNSIGVPTVGGELRISSLYAHNPLVNVLAAGVVRNDMLVDSKASRPGQVIVIFGGATGRDGIHGASFASEDLTGDKATKLSIQVGDPFAEKMLIEAFLEMVEEGLVEGAQDLGAGGVLSATSELVAKGNLGAIVHLDRVPLREPDMEPWEILISESQERMAVVTSPQKASRILEIARKHLLFGDVVAEVIEEPVYRVMYRNDLVMEVPVQLLANAPEEDIVEYTPGKIPEFKRVEFEEVNAREVFEQYDHMVGTDTVVPPGFGAAVMRIKRDGGYSLVTHSRADLALQDTYWGTLIAVLESVRKTLSVGAEPLAITNCVNYGDPDVDPVGLSAMMTALKNACEFSGVPVASGNASLYNTYQGKPIPPTLVVGMLGKVNPQKVAKPKPSKVFAVGWNDFELEREKELWRAIRKLSEEGAFILSSSQLLTRTHVETFREYGLKIEVKLPEVRPAHQMVLVFSERTPVVDVPVKEIGTLSR | not failed |
| MRAEADPEFAAVAERIHANVGRQGFMNLVGAELSELSRGTCTIAVERRPELLQQHGFFHGGVTAFLVDNATTIAAATSRGQPALTAEYKLNLLSPAVGEKLICRARVIKPGRQVSVVAADVFCVSDGVEKHTATALASIAMLSEDVAAKTKSPAA | failed |
| MVRGIRGAITVEEDTPEAIHQATRELLLKMLEANGIQSYEELAAVIFTVTEDLTFAFPAEAARQIGMHRVPLLSAREVPVPGSLPRVIRVLALWNTDTPQDRVRHVYLREAVRLRPDLESAQ | not failed |
| MQDSLGIMIKKANNALARDSDHYAKSLGLTGMQISTINFIANNEQHHDLFQRDLELEFNIRKATCSSLVSKMEAADLLIRVPAKDDGRYKRLLLTPKARQLATKIERFFETSEQRMATILGVNTAETYEALRQIAVAFSTPTHAPENWYLEHHHHHH | not failed |
| DIENSPIKDDNSIIEIFSYGCHYCAINEDNVSQLENRMPEGTRFIRLHISSDKTTGLGRFAPVFATLSVMGIEPQHRQSAYKAVLDDNSDLSDNRQLETWLKANDIDVAKYQQVSQSAEVKALISYMTAVTAHYKIDATPTFIVGKKWIALQDREFPAFSDHLLSLLEHD | failed |
| MKKKKYVNSGTVTLLSFAVESECTFLDYIKGGTQINFTVAIDFTASNGNPSQSTSLHYMSPYQLNAYALALTAVGEIIQHYDSDKMFPALGFGAKLPPDGRVSHEFPLNGNQENPSCCGIDGILEAYHRSLRTVQLYGPTNFAPVVTHVARNAAAVQDGSQYSVLLIITDGVISDMAQTKEAIVNAAKLPMSIIIVGVGQAEFDAMVELDGDDVRISSRGKLAERDIVQFVPFRDYVDRTGNHVLSMARLARDVLAEIPDQLVSYMKAQGIRPRPPPAAPTHSPSQSPARTPPASPLHTHI | failed |
| MDGSFVQHSVRVLQELNKQREKGQYCDATLDVGGLVFKAHWSVLACCSHFFQRIYGDGTGGSVVLPAGFAEIFGLLLDFFYTGHLALTSGNRDQVLLAAKELRVPEAVELCQSFQPQTSVGQAQSGLGQPASQDVKSHLKEPTDLDEEEVFKTLSLASVDQEPRDTEQPQLGTPAQSSTAFLCGKLTQALKPSPSEDKESEDCKEPPRPFEAGGAPLQGESNEWEVVVQVEDDRDGDYVSEPETVLTRRKSKVIRKPCAAEPALGAGSLTAEPTDSRKGAAVPVECPTCHKKFLSKYYLKVHNRKHTGEKPFECPKCGKCYFRKENLLEHEARNCMNRSEQVFTCSVCQETFRRRMELRLHMVSHTGEMPYKCSSCSQQFMQKKDLQSHMIKLHGAPKPHAVSASQGWGSGGSGTAQSCPHLDVLPLPVSPTCSAPLVPSASCLGRSYSCTRLLSIVEKSSLCVRNAGTGPRAATGCRCTSRPSTGMKGLMSVSSAAMPSPRRPTSTCTCARTPARSLSSATSVGRPSAPKFGQAQPHPHGREAFQL | not failed |
